In the supplement of paper PMC10065799, “High-throughput profiling of sequence recognition by tyrosine kinases and SH2 domains using bacterial peptide display” (eLife, 2023):

What was measured:
AncSZ = test: phosphorylation enrichment, bacterial display (enrichment ratio); higher = better substrate or ligand; peptides without Tyr show the background
EPHB1 = EPHB1 (UniProt P54762); test: as above
EPHB2 = EPHB2 (UniProt P29323); test: as above
FGFR1 = FGFR1 (UniProt P11362); test: as above
FGFR3 = FGFR3 (UniProt P22607); test: as above
Fer (mouse) = test: as above
Fes = Fes (UniProt P07332); test: as above
Fyn = Fyn (UniProt P06241); test: as above
Hck = Hck (UniProt P08631); test: as above
Jak2 = Jak2 (UniProt O60674); test: as above
MERTK = MERTK (UniProt Q12866); test: as above
c-Abl (mouse) = test: as above
c-Src = test: as above
Grb2 SH2 = Grb2 SH2 (UniProt P62993); test: SH2 binding enrichment of the phosphorylated peptide, bacterial display (enrichment ratio); higher = better substrate or ligand; peptides without Tyr show the background
SHP2-C SH2 = test: as above
c-Src SH2 = test: as above
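Wherever SH2 binding enrichment of the phosphorylated peptide, bacterial display is given: peptide library displayed on the E. coli surface as eCPX fusions, selected cells deep-sequenced, score is each peptide's frequency after selection divided by its frequency in the input.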
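Wherever phosphorylation enrichment, bacterial display is given: 11-residue human phosphosite peptides and single-mutation variants displayed on the E. coli surface, counted by deep sequencing, each peptide's frequency after selection divided by its frequency in the unselected input library; frequency after pTyr selection over input frequency; kinase dosed for 20-30% of maximal phosphorylation in three min.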

Chain of EPHB2 (P29323 whole entry, looked up): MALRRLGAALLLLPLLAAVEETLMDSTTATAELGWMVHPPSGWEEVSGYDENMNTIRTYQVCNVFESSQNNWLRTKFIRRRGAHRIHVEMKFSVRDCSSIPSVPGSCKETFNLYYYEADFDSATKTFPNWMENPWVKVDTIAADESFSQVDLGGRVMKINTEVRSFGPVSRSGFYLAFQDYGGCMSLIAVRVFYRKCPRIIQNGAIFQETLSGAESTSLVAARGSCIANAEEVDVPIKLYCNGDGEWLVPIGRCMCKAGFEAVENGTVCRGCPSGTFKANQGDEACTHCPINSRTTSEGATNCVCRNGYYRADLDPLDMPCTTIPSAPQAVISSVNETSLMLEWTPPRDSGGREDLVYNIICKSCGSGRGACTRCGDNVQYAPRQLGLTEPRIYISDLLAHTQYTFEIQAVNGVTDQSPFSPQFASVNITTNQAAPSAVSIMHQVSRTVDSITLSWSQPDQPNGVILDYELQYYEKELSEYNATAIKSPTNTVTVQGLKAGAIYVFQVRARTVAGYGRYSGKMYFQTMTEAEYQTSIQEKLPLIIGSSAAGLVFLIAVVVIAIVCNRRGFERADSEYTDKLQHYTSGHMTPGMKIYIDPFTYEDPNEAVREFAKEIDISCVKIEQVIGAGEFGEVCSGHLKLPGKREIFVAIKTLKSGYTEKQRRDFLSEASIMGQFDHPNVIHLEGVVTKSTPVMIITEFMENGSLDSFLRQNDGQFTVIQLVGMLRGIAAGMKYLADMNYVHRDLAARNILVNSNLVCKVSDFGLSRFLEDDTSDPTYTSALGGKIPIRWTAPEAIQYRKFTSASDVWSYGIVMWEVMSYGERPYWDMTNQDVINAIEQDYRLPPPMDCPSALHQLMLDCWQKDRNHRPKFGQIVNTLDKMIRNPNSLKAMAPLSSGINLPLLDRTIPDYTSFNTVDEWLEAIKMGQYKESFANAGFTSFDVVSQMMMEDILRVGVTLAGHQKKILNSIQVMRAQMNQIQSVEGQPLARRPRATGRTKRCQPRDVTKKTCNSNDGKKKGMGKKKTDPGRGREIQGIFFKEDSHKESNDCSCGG
Chain of FGFR3 (P22607 whole entry, looked up): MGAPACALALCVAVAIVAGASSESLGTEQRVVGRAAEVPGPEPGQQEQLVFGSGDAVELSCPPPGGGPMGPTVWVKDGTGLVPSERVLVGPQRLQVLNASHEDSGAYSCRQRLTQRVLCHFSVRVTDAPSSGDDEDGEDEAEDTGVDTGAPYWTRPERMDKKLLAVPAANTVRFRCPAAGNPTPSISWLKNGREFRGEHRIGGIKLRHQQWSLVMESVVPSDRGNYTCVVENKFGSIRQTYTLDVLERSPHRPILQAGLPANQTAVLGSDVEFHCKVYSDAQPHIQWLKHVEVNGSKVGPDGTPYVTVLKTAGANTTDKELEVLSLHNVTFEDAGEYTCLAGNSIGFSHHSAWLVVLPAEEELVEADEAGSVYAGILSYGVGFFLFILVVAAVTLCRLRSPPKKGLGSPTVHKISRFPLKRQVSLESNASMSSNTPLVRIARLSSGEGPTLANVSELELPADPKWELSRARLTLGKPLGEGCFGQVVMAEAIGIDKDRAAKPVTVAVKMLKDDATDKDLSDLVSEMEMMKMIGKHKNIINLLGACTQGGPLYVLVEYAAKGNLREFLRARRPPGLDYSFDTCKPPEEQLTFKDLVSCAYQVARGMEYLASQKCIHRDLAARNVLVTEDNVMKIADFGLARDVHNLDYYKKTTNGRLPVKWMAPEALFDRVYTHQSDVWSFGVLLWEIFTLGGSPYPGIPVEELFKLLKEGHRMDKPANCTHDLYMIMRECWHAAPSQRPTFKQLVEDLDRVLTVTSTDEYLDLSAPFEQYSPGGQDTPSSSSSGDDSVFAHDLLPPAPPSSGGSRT
Chain of EPHB1 (P54762 whole entry, looked up): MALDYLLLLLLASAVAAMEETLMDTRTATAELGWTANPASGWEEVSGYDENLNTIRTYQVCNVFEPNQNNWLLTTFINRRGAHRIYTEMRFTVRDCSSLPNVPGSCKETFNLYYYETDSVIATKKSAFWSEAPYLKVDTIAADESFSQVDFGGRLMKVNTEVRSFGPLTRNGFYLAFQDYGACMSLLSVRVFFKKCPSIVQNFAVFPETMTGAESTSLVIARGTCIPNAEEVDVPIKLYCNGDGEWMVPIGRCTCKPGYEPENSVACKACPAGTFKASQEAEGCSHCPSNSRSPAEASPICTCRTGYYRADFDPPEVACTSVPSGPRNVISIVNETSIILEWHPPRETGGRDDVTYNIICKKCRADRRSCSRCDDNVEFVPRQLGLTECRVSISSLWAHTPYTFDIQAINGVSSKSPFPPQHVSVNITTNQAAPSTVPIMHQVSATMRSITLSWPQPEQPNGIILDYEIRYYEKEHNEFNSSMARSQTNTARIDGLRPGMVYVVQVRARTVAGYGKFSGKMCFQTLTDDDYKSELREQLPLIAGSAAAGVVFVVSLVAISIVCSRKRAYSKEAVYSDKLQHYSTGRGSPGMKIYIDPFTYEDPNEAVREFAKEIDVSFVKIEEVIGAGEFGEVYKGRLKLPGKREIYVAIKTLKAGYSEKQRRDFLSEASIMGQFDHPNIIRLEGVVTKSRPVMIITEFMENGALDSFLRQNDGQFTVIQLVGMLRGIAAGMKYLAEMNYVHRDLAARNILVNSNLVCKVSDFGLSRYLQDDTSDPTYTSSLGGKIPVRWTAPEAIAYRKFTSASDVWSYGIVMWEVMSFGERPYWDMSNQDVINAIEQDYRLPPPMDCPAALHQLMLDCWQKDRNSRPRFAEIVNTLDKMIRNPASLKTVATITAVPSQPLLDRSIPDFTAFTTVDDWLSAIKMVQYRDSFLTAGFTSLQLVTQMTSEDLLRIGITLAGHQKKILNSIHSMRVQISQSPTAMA
Chain of Fyn (P06241 whole entry, looked up): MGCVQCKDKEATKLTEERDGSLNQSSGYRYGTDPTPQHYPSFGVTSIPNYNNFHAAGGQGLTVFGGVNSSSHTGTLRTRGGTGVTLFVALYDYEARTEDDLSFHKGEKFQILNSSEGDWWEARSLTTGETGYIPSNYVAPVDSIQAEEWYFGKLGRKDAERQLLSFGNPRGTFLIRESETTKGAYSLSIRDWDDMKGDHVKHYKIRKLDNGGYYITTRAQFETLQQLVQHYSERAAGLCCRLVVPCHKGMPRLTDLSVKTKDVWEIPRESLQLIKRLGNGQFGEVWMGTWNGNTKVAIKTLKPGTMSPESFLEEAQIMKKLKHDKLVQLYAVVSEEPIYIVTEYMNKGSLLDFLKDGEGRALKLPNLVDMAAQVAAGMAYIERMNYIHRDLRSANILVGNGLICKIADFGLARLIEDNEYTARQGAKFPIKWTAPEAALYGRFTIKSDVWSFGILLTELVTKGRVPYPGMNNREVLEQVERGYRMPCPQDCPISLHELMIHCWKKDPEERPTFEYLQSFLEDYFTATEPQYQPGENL
Chain of Jak2 (O60674 whole entry, looked up): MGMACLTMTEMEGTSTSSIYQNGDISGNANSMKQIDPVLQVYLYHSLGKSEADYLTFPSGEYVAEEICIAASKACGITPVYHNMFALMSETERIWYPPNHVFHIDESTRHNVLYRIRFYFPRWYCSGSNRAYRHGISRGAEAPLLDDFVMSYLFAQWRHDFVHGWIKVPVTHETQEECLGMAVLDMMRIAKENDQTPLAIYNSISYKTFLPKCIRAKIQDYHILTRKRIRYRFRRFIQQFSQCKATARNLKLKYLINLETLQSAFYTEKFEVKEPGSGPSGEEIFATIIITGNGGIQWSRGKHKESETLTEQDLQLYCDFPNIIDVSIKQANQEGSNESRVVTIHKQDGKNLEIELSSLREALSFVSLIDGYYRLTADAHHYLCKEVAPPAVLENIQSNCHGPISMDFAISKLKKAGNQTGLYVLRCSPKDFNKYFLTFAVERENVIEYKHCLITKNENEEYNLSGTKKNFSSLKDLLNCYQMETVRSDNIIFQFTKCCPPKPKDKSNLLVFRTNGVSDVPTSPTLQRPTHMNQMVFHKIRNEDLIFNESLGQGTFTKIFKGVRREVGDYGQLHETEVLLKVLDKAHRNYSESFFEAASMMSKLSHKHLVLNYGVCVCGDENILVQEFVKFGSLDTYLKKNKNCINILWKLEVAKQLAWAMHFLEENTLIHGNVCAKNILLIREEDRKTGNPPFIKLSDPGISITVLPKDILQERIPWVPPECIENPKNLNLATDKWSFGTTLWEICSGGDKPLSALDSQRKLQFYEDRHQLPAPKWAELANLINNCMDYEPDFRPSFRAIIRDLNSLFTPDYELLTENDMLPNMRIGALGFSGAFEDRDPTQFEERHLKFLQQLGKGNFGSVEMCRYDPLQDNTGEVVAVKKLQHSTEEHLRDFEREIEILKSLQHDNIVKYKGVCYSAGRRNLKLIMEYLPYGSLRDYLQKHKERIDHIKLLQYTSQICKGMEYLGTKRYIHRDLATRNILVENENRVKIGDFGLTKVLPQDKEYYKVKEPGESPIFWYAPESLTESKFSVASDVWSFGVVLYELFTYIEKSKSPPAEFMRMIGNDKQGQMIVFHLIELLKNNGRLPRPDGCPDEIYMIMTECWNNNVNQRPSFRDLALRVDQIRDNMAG
Chain of Hck (P08631 whole entry, looked up): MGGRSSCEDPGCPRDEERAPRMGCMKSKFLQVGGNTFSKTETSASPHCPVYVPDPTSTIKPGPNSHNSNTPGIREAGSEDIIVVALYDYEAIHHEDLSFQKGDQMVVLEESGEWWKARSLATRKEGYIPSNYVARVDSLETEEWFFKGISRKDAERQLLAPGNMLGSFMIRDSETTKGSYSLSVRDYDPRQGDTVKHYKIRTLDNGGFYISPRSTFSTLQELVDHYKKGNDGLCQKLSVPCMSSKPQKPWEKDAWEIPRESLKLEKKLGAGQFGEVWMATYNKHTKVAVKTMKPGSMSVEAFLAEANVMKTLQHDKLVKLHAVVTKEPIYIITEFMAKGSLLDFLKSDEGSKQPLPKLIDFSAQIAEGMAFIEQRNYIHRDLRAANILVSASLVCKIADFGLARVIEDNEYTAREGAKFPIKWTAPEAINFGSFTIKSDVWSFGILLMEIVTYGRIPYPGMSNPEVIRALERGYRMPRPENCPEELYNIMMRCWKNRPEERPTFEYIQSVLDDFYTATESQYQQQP

Row | SH2 binding enrichment (Grb2 SH2) | SH2 binding enrichment (SHP2-C SH2) | SH2 binding enrichment (c-Src SH2) | Sequence | phosphorylation enrichment (AncSZ) | phosphorylation enrichment (EPHB1) | phosphorylation enrichment (EPHB2) | phosphorylation enrichment (FGFR1) | phosphorylation enrichment (FGFR3) | phosphorylation enrichment (Fer (mouse)) | phosphorylation enrichment (Fes) | phosphorylation enrichment (Fyn) | phosphorylation enrichment (Hck) | phosphorylation enrichment (Jak2) | phosphorylation enrichment (MERTK) | phosphorylation enrichment (c-Abl (mouse)) | phosphorylation enrichment (c-Src)
1 | 0.87 | 0.8 | 0.709 | FFSSEYHCVGG [CTSC_Y345_Y347C_YF] | 2.38 | 2.37 | 2.15 | 7.57 | 4.98 | 0.545 | 1.17 | 1.58 | 1.66 | 1.08 | 0.651 | 1.88 | 2.1
2 | 1.18 | 1.01 | 0.735 | FGHTFYNQAIM [MCCC2_Y196_R193H] | 0.715 | 0.404 | 0.447 | 0.555 | 0.556 | 0.461 | 0.945 | 0.465 | 0.41 | 0.856 | 0.445 | 0.527 | 0.455
3 | 0.949 | 0.883 | 0.656 | FGISGYLVDSV [MAP2K3_Y214] | 0.982 | 0.377 | 0.501 | 0.478 | 0.631 | 0.529 | 1.2 | 0.467 | 0.471 | 0.97 | 0.459 | 0.722 | 0.504
4 | 1.23 | 1.02 | 1.08 | FGMQLYQKFMH [GRB14_Y347_N349K_YF] | 0.863 | 1.39 | 0.8 | 0.454 | 0.784 | 1.92 | 1 | 1.56 | 2.16 | 0.94 | 2.11 | 0.773 | 2.26
5 | 0.867 | 0.731 | 0.676 | FGSIMYEFVGK [SLC18A1_Y251_V249I] | 1.12 | 1.73 | 1.04 | 0.658 | 0.652 | 9.41 | 0.983 | 1.09 | 5.05 | 0.703 | 6.29 | 0.508 | 1.44
6 | 0.781 | 0.753 | 0.527 | FISVGYVDGTQ [HLA-B_Y51_D54G] | 0.741 | 0.268 | 0.401 | 0.353 | 0.587 | 0.358 | 0.807 | 0.315 | 0.375 | 0.696 | 0.348 | 0.572 | 0.398
7 | 1.06 | 1.62 | 5.52 | FLRTGYSIPFG [TGM1_Y370_V372I_YF] | 0.844 | 0.538 | 0.471 | 0.486 | 0.769 | 0.409 | 0.934 | 0.473 | 0.423 | 0.863 | 0.753 | 0.775 | 0.44
8 | 0.897 | 1.17 | 0.767 | FMRGMYFRMKD [PLA2G6_Y541_YF] | 1.16 | 0.518 | 0.542 | 0.442 | 0.657 | 0.399 | 1.12 | 0.455 | 0.428 | 1.14 | 0.419 | 0.645 | 0.417
9 | 0.823 | 0.826 | 0.91 | FPAVGYHKPHI [IDS_Y225_L221P] | 0.638 | 0.393 | 0.467 | 0.412 | 0.565 | 0.436 | 0.601 | 0.472 | 0.394 | 0.625 | 0.374 | 0.602 | 0.41
10 | 0.909 | 0.568 | 0.575 | FPKARYRWLVL [APTX_Y214_H215R_YF] | 0.715 | 0.448 | 0.371 | 0.533 | 0.534 | 0.352 | 0.72 | 0.386 | 0.407 | 0.717 | 0.494 | 0.534 | 0.436
11 | 0.644 | 0.746 | 0.374 | FPPTHYIRRVP [SLC4A11_Y820_YF] | 0.953 | 0.529 | 0.53 | 0.437 | 0.468 | 0.747 | 0.87 | 0.473 | 0.965 | 0.755 | 0.522 | 0.71 | 0.475
12 | 0.705 | 0.476 | 0.465 | FRARAYGFRGP [CHGA_Y381] | 0.839 | 0.472 | 0.506 | 0.497 | 0.427 | 0.532 | 0.747 | 0.676 | 0.569 | 0.686 | 0.748 | 0.658 | 0.651
13 | 1.08 | 0.913 | 1.09 | FRPPYYHRDCM [HGD_Y334_N337D] | 0.805 | 0.536 | 0.611 | 0.56 | 0.735 | 0.499 | 0.867 | 0.417 | 0.415 | 0.723 | 0.444 | 0.572 | 0.455
14 | 0.804 | 0.602 | 0.425 | FRQNVYIPGSN [PCDHGA1_Y895_YF] | 0.576 | 0.43 | 0.442 | 0.416 | 0.501 | 0.402 | 0.613 | 0.447 | 0.442 | 0.584 | 0.416 | 0.536 | 0.435
15 | 0.869 | 0.691 | 1.08 | FSAGTYPRMEE [SYCN_Y108_L111M] | 0.863 | 0.453 | 0.467 | 1.12 | 0.547 | 0.417 | 0.65 | 0.361 | 0.322 | 0.575 | 0.365 | 0.501 | 0.407
16 | 0.647 | 0.638 | 0.416 | FSNVLYRPRGA [TMIGD2_Y197_YF] | 0.695 | 0.415 | 0.526 | 0.388 | 0.43 | 0.479 | 0.845 | 0.437 | 0.41 | 0.478 | 0.418 | 0.611 | 0.477

Second part, the sequence before the results:

Row | Sequence | SH2 binding enrichment (Grb2 SH2) | SH2 binding enrichment (SHP2-C SH2) | SH2 binding enrichment (c-Src SH2) | phosphorylation enrichment (AncSZ) | phosphorylation enrichment (EPHB1) | phosphorylation enrichment (EPHB2) | phosphorylation enrichment (FGFR1) | phosphorylation enrichment (FGFR3) | phosphorylation enrichment (Fer (mouse)) | phosphorylation enrichment (Fes) | phosphorylation enrichment (Fyn) | phosphorylation enrichment (Hck) | phosphorylation enrichment (Jak2) | phosphorylation enrichment (MERTK) | phosphorylation enrichment (c-Abl (mouse)) | phosphorylation enrichment (c-Src)
17 | FGGTVYHSPVS [PRC1_Y511] | 0.851 | 2.81 | 1.72 | 0.894 | 0.535 | 0.418 | 0.473 | 0.525 | 0.434 | 0.687 | 0.588 | 0.851 | 0.555 | 0.444 | 3.96 | 0.771
18 | FGSLLYKYAFK [FANCD2_Y458] | 0.922 | 0.731 | 0.485 | 0.839 | 0.468 | 0.391 | 0.352 | 0.684 | 0.324 | 1.04 | 0.366 | 0.379 | 0.858 | 0.433 | 0.627 | 0.392
19 | FHKALYTVRSF [PDE6C_Y266_YF] | 0.784 | 0.648 | 0.459 | 0.708 | 0.612 | 0.489 | 0.462 | 0.549 | 0.394 | 0.942 | 0.43 | 0.557 | 0.674 | 0.378 | 0.666 | 0.389
20 | FLGRNYLETLM [DUS3L_Y610_D609N_YF] | 1.02 | 1.09 | 0.605 | 0.679 | 0.515 | 0.412 | 0.448 | 0.567 | 0.433 | 0.701 | 0.454 | 0.33 | 0.63 | 0.322 | 0.522 | 0.292
21 | FLNSIYQSRDE [ROS1_Y2227_K2228Q] | 0.789 | 0.74 | 0.361 | 0.743 | 0.533 | 0.441 | 0.353 | 0.785 | 0.548 | 0.764 | 4.07 | 4.33 | 0.791 | 0.489 | 0.775 | 4.63
22 | FLTSSYINIST [IL23R_Y178_YF] | 22.6 | 1.33 | 2.66 | 0.834 | 0.437 | 0.434 | 0.517 | 0.489 | 0.375 | 0.779 | 0.48 | 0.422 | 1.34 | 0.47 | 0.498 | 0.44
23 | FQEPVYSVAFS [TBL1X_Y509_H504Y_YF] | 0.812 | 0.926 | 0.469 | 4.02 | 18.1 | 24.6 | 3.68 | 3.49 | 16.6 | 3.7 | 11.8 | 10.2 | 0.925 | 11.7 | 27.4 | 7.54
24 | FQLPFYNTVPS [BMPR1A_Y458_M460T_YF] | 0.911 | 0.816 | 5.8 | 0.748 | 0.526 | 0.45 | 0.414 | 0.699 | 0.642 | 0.828 | 0.465 | 0.687 | 0.704 | 0.569 | 0.625 | 0.565
25 | FQSKHYACIRQ [TIMP3_Y182_YF] | 1.01 | 6.08 | 1.79 | 0.692 | 0.541 | 0.478 | 0.42 | 0.512 | 0.472 | 0.829 | 0.375 | 0.392 | 0.823 | 0.503 | 0.659 | 0.425
26 | FRARAYSFRGP [CHGA_Y381_G382S] | 0.597 | 0.363 | 0.573 | 0.697 | 0.48 | 0.419 | 0.538 | 0.534 | 0.456 | 0.591 | 0.418 | 0.455 | 0.628 | 0.601 | 0.573 | 0.507
27 | FRDALYKSMVD [PHEX_Y250_F252S_YF] | 0.795 | 0.735 | 0.516 | 0.792 | 0.608 | 0.614 | 0.497 | 0.642 | 0.488 | 0.97 | 0.419 | 0.476 | 0.897 | 0.484 | 0.643 | 0.365
28 | FSALDYKIFFF [WDPCP_Y210_L205F_YF] | 0.731 | 0.401 | 0.449 | 1.57 | 0.675 | 0.54 | 0.6 | 0.981 | 0.541 | 1.64 | 0.416 | 0.504 | 1.69 | 0.468 | 1.13 | 0.67
29 | FSDQVYRQRRK [TH_Y230] | 0.634 | 0.446 | 0.421 | 0.853 | 0.557 | 0.663 | 0.474 | 0.568 | 0.551 | 0.787 | 0.615 | 0.493 | 0.658 | 0.649 | 0.735 | 0.774
30 | FSQETYFRVSN [ABCD1_Y180_Q178E_YF] | 0.481 | 0.544 | 0.466 | 1 | 1.08 | 0.706 | 1.64 | 1.23 | 0.45 | 1.1 | 0.592 | 0.868 | 3 | 0.74 | 0.661 | 1.51
31 | FSTSPYLLEAA [BRIP1_Y921_YF] | 0.954 | 1.17 | 0.577 | 0.782 | 0.488 | 0.494 | 0.408 | 0.667 | 0.475 | 0.962 | 3.49 | 0.557 | 0.724 | 0.437 | 0.458 | 1.57
32 | FTAVGYHKHIT [NOMO1_Y1137] | 1.02 | 1.62 | 0.849 | 0.649 | 0.382 | 0.414 | 0.485 | 0.614 | 0.48 | 0.685 | 0.432 | 0.482 | 0.524 | 0.33 | 0.569 | 0.312
33 | FVHDNYVIRRT [CPS1_Y1450] | 0.655 | 0.517 | 0.416 | 0.772 | 0.376 | 0.499 | 0.4 | 0.467 | 0.435 | 0.739 | 0.446 | 0.489 | 0.714 | 0.391 | 0.418 | 0.536
